The target in this experiment is full-length Brr2, purified, Protein A tag cleaved off (S. cerevisiae, UniProt P32639 1-2163). The experiment can be described thus: native gel or EMSA. (In general: A gel shift assay detects complexes by their altered migration in electrophoresis.)
Chain of full-length Brr2, purified, Protein A tag cleaved off (P32639 whole entry): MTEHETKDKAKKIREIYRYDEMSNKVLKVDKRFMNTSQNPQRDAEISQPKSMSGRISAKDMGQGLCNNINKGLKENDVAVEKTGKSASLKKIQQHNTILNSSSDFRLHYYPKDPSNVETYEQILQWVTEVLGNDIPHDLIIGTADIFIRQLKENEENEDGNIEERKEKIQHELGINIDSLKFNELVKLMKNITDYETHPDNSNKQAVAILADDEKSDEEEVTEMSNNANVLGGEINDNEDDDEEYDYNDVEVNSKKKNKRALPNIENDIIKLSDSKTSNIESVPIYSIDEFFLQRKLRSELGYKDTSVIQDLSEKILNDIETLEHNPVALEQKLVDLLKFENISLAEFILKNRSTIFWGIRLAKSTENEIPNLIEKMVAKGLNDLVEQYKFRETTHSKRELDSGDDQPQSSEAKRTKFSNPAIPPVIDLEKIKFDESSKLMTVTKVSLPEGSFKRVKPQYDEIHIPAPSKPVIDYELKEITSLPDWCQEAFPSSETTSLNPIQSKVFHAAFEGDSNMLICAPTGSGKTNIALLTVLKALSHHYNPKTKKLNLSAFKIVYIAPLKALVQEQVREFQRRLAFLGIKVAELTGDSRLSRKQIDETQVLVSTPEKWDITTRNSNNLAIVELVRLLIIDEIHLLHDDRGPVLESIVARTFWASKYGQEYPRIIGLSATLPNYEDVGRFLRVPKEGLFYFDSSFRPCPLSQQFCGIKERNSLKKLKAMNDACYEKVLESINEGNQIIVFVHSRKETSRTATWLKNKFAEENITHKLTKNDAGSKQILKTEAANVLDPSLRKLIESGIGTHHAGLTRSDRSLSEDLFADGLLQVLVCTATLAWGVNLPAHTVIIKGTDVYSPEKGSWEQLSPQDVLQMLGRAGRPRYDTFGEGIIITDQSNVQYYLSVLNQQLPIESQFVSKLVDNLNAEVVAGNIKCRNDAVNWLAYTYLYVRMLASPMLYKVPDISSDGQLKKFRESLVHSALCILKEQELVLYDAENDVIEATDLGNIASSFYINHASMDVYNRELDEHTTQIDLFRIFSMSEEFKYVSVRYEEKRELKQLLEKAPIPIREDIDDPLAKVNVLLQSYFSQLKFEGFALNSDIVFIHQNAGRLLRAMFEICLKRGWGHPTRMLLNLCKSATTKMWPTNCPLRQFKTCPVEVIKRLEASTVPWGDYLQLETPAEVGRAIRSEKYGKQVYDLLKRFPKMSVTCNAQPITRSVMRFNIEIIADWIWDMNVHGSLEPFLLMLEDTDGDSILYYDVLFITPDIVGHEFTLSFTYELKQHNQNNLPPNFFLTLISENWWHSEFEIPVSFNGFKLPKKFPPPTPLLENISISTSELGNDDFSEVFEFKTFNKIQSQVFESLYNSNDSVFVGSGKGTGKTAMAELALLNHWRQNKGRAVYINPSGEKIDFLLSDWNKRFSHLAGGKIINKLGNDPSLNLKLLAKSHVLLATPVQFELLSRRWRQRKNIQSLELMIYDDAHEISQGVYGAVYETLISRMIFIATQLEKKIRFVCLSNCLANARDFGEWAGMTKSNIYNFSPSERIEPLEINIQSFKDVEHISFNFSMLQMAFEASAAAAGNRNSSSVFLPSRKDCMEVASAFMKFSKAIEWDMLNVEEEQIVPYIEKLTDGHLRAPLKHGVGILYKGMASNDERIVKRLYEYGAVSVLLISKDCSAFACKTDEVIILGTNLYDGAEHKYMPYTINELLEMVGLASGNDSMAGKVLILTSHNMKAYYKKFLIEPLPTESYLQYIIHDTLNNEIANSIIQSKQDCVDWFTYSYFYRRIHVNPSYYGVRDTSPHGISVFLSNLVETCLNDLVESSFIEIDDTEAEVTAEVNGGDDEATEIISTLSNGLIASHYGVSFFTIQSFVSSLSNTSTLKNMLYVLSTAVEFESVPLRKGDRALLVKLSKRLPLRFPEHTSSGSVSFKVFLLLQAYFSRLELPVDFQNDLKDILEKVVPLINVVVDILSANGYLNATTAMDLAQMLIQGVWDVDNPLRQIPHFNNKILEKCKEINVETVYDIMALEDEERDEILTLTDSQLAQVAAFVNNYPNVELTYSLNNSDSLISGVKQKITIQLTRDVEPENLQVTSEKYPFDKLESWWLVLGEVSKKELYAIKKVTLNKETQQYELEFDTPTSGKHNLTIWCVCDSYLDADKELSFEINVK

B1: C-terminal region of Prp8 (Prp8-CTR, residues 1822–2395) (domain or fragment)
chain: GLQIYQSSVQEPFLNSSNYAELFNNDIKLFVDDTNVYRVTVHKTFEGNVATKAINGCIFTLNPKTGHLFLKIIHTSVWAGQKRLSQLAKWKTAEEVSALVRSLPKEEQPKQIIVTRKAMLDPLEVHMLDFPNIAIRPTELRLPFSAAMSIDKLSDVVMKATEPQMVLFNIYDDWLDRISSYTAFSRLTLLLRALKTNEESAKMILLSDPTITIKSYHLWPSFTDEQWITIESQMRDLILTEYGRKYNVNISALTQTEIKDIILGQNIKAPSVKRQKMAELEAARSEKQNDEEAAGASTVMKTKTINAQGEEIVVVASADYESQTFSSKNEWRKSAIANTLLYLRLKNIYVSADDFVEEQNVYVLPKNLLKKFIEISDVKIQVAAFIYGMSAKDHPKVKEIKTVVLVPQLGHVGSVQISNIPDIGDLPDTEGLELLGWIHTQTEELKFMAASEVATHSKLFADKKRDCIDISIFSTPGSVSLSAYNLTDEGYQWGEENKDIMNVLSEGFEPTFSTHAQLLLSDRITGNFIIPSGNVWNYTFMGTAFNQEGDYNFKYGIPLEFYNEMHRPVHFLQF
In the case of B1, the binding result is reported as “binds”.

(Values after PMC2743687 (Nature structural & molecular biology, 2009).)
